Test results from patent US20160264649A1.

Legend:
Experiment in all cases: cell-based or functional assay
[1] = biological target: HIV-1 Env of isolate 92UG001 (subtype D) (HIV-1)
[2] = biological target: HIV-1 Env of isolate 92UG005 (subtype D) (HIV-1)
[3] = biological target: HIV-1 Env of isolate 92UG024 (subtype D) (HIV-1)
[4] = biological target: HIV-1 Env of isolate 92UG046 (subtype D) (HIV-1)
[5] = biological target: HIV-1 Env of isolate 92UG114 (subtype D) (HIV-1)
[6] = biological target: HIV-1 Env of isolate 98CN006 (subtype CRF08_BC) (HIV-1)
[7] = biological target: HIV-1 Env of isolate 98CN009 (subtype CRF07_BC) (HIV-1)
[8] = biological target: HIV-1 Env of isolate MGRM-D-001 (subtype D) (HIV-1)
[9] = biological target: HIV-1 Env of isolate MGRM-D-002 (subtype D) (HIV-1)
[10] = biological target: HIV-1 Env of isolate MGRM-D-003 (subtype D) (HIV-1)
[11] = biological target: HIV-1 Env of isolate MGRM-D-004 (subtype D) (HIV-1)
[12] = biological target: HIV-1 Env of isolate MGRM-D-005 (subtype D) (HIV-1)
[13] = biological target: HIV-1 Env of isolate MGRM-D-008 (subtype D) (HIV-1)
[14] = biological target: HIV-1 Env of isolate MGRM-D-011 (subtype D) (HIV-1)
[15] = biological target: HIV-1 Env of isolate MGRM-D-012 (subtype D) (HIV-1)
[16] = biological target: HIV-1 Env of isolate MGRM-D-013 (subtype D) (HIV-1)
[17] = biological target: HIV-1 Env of isolate MGRM-D-014 (subtype D) (HIV-1)
[18] = biological target: HIV-1 Env of isolate MGRM-D-016 (subtype D) (HIV-1)
[19] = biological target: HIV-1 Env of isolate MGRM-D-018 (subtype D) (HIV-1)
[20] = biological target: HIV-1 Env of isolate MGRM-D-019 (subtype D) (HIV-1)
[21] = biological target: HIV-1 Env of isolate MGRM-D-020 (subtype D) (HIV-1)
[22] = biological target: HIV-1 Env of isolate MGRM-D-021 (subtype D) (HIV-1)
[23] = biological target: HIV-1 Env of isolate MGRM-D-022 (subtype D) (HIV-1)
[24] = biological target: HIV-1 Env of isolate MGRM-D-024 (subtype D) (HIV-1)
[25] = biological target: HIV-1 Env of isolate MGRM-D-026 (subtype D) (HIV-1)
[26] = biological target: HIV-1 Env of isolate MGRM-D-028 (subtype D) (HIV-1)
[27] = biological target: HIV-1 Env of isolate MGRM-D-029 (subtype D) (HIV-1)
[28] = biological target: HIV-1 Env of isolate MGRM-F1-004 (subtype F) (HIV-1)
[29] = biological target: HIV-1 Env of isolate MGRM-F1-006 (subtype F) (HIV-1)
[30] = biological target: HIV-1 Env of isolate MGRM-F1-008 (subtype F) (HIV-1)
[31] = biological target: HIV-1 Env of isolate MGRM-F1-010 (subtype F) (HIV-1)
[32] = biological target: HIV-1 Env of isolate MGRM-F1-012 (subtype F) (HIV-1)
[33] = biological target: HIV-1 Env of isolate MGRM-F1-013 (subtype F) (HIV-1)
[34] = biological target: HIV-1 Env of isolate MGRM-F1-014 (subtype F) (HIV-1)
[35] = biological target: HIV-1 Env of isolate MGRM-F1-015 (subtype F) (HIV-1)
[36] = biological target: HIV-1 Env of isolate MGRM-F1-016 (subtype F) (HIV-1)
[37] = biological target: HIV-1 Env of isolate MGRM-F1-017 (subtype F) (HIV-1)
[38] = biological target: HIV-1 Env of isolate MGRM-F1-018 (subtype F) (HIV-1)
[39] = biological target: HIV-1 Env of isolate MGRM-F1-020 (subtype F) (HIV-1)
[40] = biological target: HIV-1 Env of isolate MGRM-F1-021 (subtype F) (HIV-1)
[41] = biological target: HIV-1 Env of isolate MGRM-F1-022 (subtype F) (HIV-1)
[42] = biological target: HIV-1 Env of isolate MGRM-F1-023 (subtype F) (HIV-1)
[43] = biological target: HIV-1 Env of pseudovirus isolate MGRM-G-001 (subtype G) (HIV-1)
[44] = biological target: HIV-1 Env of pseudovirus isolate MGRM-G-004 (subtype G) (HIV-1)
[45] = biological target: HIV-1 Env of pseudovirus isolate MGRM-G-006 (subtype G) (HIV-1)
[46] = biological target: HIV-1 Env of pseudovirus isolate MGRM-G-009 (subtype G) (HIV-1)
[47] = biological target: HIV-1 Env of pseudovirus isolate MGRM-G-011 (subtype G) (HIV-1)
[48] = biological target: HIV-1 Env of pseudovirus isolate MGRM-G-013 (subtype G) (HIV-1)
[49] = biological target: HIV-1 Env of pseudovirus isolate MGRM-G-014 (subtype G) (HIV-1)
[50] = biological target: HIV-1 Env of pseudovirus isolate MGRM-G-015 (subtype G) (HIV-1)
[51] = biological target: HIV-1 Env of pseudovirus isolate MGRM-G-016 (subtype G) (HIV-1)
[52] = biological target: HIV-1 Env of pseudovirus isolate MGRM-G-017 (subtype G) (HIV-1)
[53] = biological target: HIV-1 Env of pseudovirus isolate MGRM-G-019 (subtype G) (HIV-1)
[54] = biological target: HIV-1 Env of pseudovirus isolate MGRM-G-024 (subtype G) (HIV-1)
[55] = biological target: HIV-1 Env of pseudovirus isolate MGRM-G-025 (subtype G) (HIV-1)
[56] = biological target: HIV-1 Env of pseudovirus isolate MGRM-G-027 (subtype G) (HIV-1)
[57] = biological target: HIV-1 Env of pseudovirus isolate MGRM-G-028 (subtype G) (HIV-1)
[58] = biological target: envelope of aMLV pseudovirus (negative control)

B1: PGT-131 (antibody, V domains shown)
VH: QVQLQESGPGLVKPSETLSLTCTVSGDSINTGHHYWGWVRQVPGKGPEWIAHIHYNTAVLHNPALKSRVTISIFTLKNLITLSLSNVTAADTAVYFCVRSGGDILYYIEWQKPHWFYPWGPGILVTVSS
VL: QSALTQPPSASGSLGQSLTISCSGTGSDIGSWNFVSWYQQFPGRAPNLIIFEVNRRRSGVPDRFSGSKSGNTASLTVSGLRSEDEAEYFCSSLSGRWDIVFGGGTKVTVL
IC50 (neutralization) [1]: > 50 µg/mL | IC50 (neutralization) [2]: 0.854 µg/mL | IC50 (neutralization) [3]: > 50 µg/mL | IC50 (neutralization) [4]: > 50 µg/mL | IC50 (neutralization) [5]: > 50 µg/mL | IC50 (neutralization) [6]: 35.3 µg/mL | IC50 (neutralization) [7]: 4.05 µg/mL | IC50 (neutralization) [8]: > 50 µg/mL | IC50 (neutralization) [9]: 11.2 µg/mL | IC50 (neutralization) [10]: 19.6 µg/mL | IC50 (neutralization) [11]: 2.01 µg/mL | IC50 (neutralization) [12]: > 50 µg/mL | IC50 (neutralization) [13]: > 50 µg/mL | IC50 (neutralization) [14]: 0.756 µg/mL | IC50 (neutralization) [15]: > 50 µg/mL | IC50 (neutralization) [16]: 4.14 µg/mL | IC50 (neutralization) [17]: 0.516 µg/mL | IC50 (neutralization) [18]: > 50 µg/mL | IC50 (neutralization) [19]: 0.148 µg/mL | IC50 (neutralization) [20]: > 50 µg/mL | IC50 (neutralization) [21]: > 50 µg/mL | IC50 (neutralization) [22]: 0.106 µg/mL | IC50 (neutralization) [23]: > 50 µg/mL | IC50 (neutralization) [24]: > 50 µg/mL | IC50 (neutralization) [25]: > 50 µg/mL | IC50 (neutralization) [26]: > 50 µg/mL | IC50 (neutralization) [27]: > 50 µg/mL | IC50 (neutralization) [28]: 0.114 µg/mL | IC50 (neutralization) [29]: > 50 µg/mL | IC50 (neutralization) [30]: 2.74 µg/mL | IC50 (neutralization) [31]: > 50 µg/mL | IC50 (neutralization) [32]: > 50 µg/mL | IC50 (neutralization) [33]: > 50 µg/mL | IC50 (neutralization) [34]: > 50 µg/mL | IC50 (neutralization) [35]: > 50 µg/mL | IC50 (neutralization) [36]: > 50 µg/mL | IC50 (neutralization) [37]: > 50 µg/mL | IC50 (neutralization) [38]: > 50 µg/mL | IC50 (neutralization) [39]: > 50 µg/mL | IC50 (neutralization) [40]: > 50 µg/mL | IC50 (neutralization) [41]: > 50 µg/mL | IC50 (neutralization) [42]: > 50 µg/mL | IC50 [43]: 0.404 µg/mL | IC50 [44]: > 50 µg/mL | IC50 [45]: > 50 µg/mL | IC50 [46]: > 50 µg/mL | IC50 [47]: > 50 µg/mL | IC50 [48]: > 50 µg/mL | IC50 [49]: 4.31 µg/mL | IC50 [50]: > 50 µg/mL | IC50 [51]: > 50 µg/mL | IC50 [52]: > 50 µg/mL | IC50 [53]: > 50 µg/mL | IC50 [54]: 10.7 µg/mL | IC50 [55]: 7.75 µg/mL | IC50 [56]: 2.9 µg/mL | IC50 [57]: 0.466 µg/mL | IC50 [58]: > 50 µg/mL

B2: PGT-135 (antibody, V domains shown)
VH: QLQMQESGPGLVKPSETLSLSCTVSGDSIRGGEWGDKDYHWGWVRHSAGKGLEWIGSIHWRGTTHYKESLRRRVSMSIDTSRNWFSLRLASVTAADTAVYFCARHRHHDVFMLVPIAGWFDVWGPGVQVTVSS
VL: EIVMTQSPDTLSVSPGETVTLSCRASQNINKNLAWYQYKPGQSPRLVIFETYSKIAAFPARFVASGSGTEFTLTINNMQSEDVAVYYCQQYEEWPRTFGQGTKVDIK
IC50 (neutralization) [1]: > 50 µg/mL | IC50 (neutralization) [2]: > 50 µg/mL | IC50 (neutralization) [3]: 0.01 µg/mL | IC50 (neutralization) [4]: > 50 µg/mL | IC50 (neutralization) [5]: 1.29 µg/mL | IC50 (neutralization) [6]: 0.429 µg/mL | IC50 (neutralization) [7]: 0.071 µg/mL | IC50 (neutralization) [8]: > 50 µg/mL | IC50 (neutralization) [9]: > 50 µg/mL | IC50 (neutralization) [10]: > 50 µg/mL | IC50 (neutralization) [11]: > 50 µg/mL | IC50 (neutralization) [12]: > 50 µg/mL | IC50 (neutralization) [13]: > 50 µg/mL | IC50 (neutralization) [14]: 23.5 µg/mL | IC50 (neutralization) [15]: > 50 µg/mL | IC50 (neutralization) [16]: > 50 µg/mL | IC50 (neutralization) [17]: 2.21 µg/mL | IC50 (neutralization) [18]: > 50 µg/mL | IC50 (neutralization) [19]: 0.039 µg/mL | IC50 (neutralization) [20]: > 50 µg/mL | IC50 (neutralization) [21]: > 50 µg/mL | IC50 (neutralization) [22]: > 50 µg/mL | IC50 (neutralization) [23]: > 50 µg/mL | IC50 (neutralization) [24]: > 50 µg/mL | IC50 (neutralization) [25]: > 50 µg/mL | IC50 (neutralization) [26]: > 50 µg/mL | IC50 (neutralization) [27]: 30.8 µg/mL | IC50 (neutralization) [28]: 0.211 µg/mL | IC50 (neutralization) [29]: > 50 µg/mL | IC50 (neutralization) [30]: > 50 µg/mL | IC50 (neutralization) [31]: > 50 µg/mL | IC50 (neutralization) [32]: 0.01 µg/mL | IC50 (neutralization) [33]: 21.1 µg/mL | IC50 (neutralization) [34]: > 50 µg/mL | IC50 (neutralization) [35]: 1.11 µg/mL | IC50 (neutralization) [36]: > 50 µg/mL | IC50 (neutralization) [37]: 7.79 µg/mL | IC50 (neutralization) [38]: > 50 µg/mL | IC50 (neutralization) [39]: 0.168 µg/mL | IC50 (neutralization) [40]: 0.065 µg/mL | IC50 (neutralization) [41]: 0.964 µg/mL | IC50 (neutralization) [42]: 0.088 µg/mL | IC50 [43]: 0.393 µg/mL | IC50 [44]: > 50 µg/mL | IC50 [45]: > 50 µg/mL | IC50 [46]: > 50 µg/mL | IC50 [47]: > 50 µg/mL | IC50 [48]: > 50 µg/mL | IC50 [49]: > 50 µg/mL | IC50 [50]: > 50 µg/mL | IC50 [51]: > 50 µg/mL | IC50 [52]: 0.137 µg/mL | IC50 [53]: 0.145 µg/mL | IC50 [54]: 0.062 µg/mL | IC50 [55]: 0.592 µg/mL | IC50 [56]: 0.062 µg/mL | IC50 [57]: > 50 µg/mL | IC50 [58]: > 50 µg/mL
